Laboratory results: patent US20140271651A1

Key:
[1] = biological target: GP73-hFc (human GP73 amino acids 63 to 400 fused at the C-terminus to human IgG1 Fc) (human); test: sandwich EIA on GP73-hFc, coated NC, second antibody 1B-3440-Bt
[2] = biological target: GP73-hFc (human GP73 amino acids 63 to 400 fused at the C-terminus to human IgG1 Fc) (human); test: sandwich EIA on GP73-hFc, coated NC, second antibody 1B-3246-Bt
[3] = biological target: GP73-hFc (human GP73 amino acids 63 to 400 fused at the C-terminus to human IgG1 Fc) (human); test: sandwich EIA on GP73-hFc, coated NC, second antibody 1A-4246-Bt
[4] = biological target: GP73-hFc (human GP73 amino acids 63 to 400 fused at the C-terminus to human IgG1 Fc) (human); test: sandwich EIA on GP73-hFc, coated NC, second antibody NC-Bt
[5] = biological target: GP73-hFc (human GP73 amino acids 63 to 400 fused at the C-terminus to human IgG1 Fc) (human); test: sandwich EIA on GP73-hFc, coated 1A-3187, second antibody NC-Bt
[6] = biological target: GP73-hFc (human GP73 amino acids 63 to 400 fused at the C-terminus to human IgG1 Fc) (human); test: sandwich EIA on GP73-hFc, coated NC, second antibody 1A-3187-Bt
[7] = biological target: GP73-hFc (human GP73 amino acids 63 to 400 fused at the C-terminus to human IgG1 Fc) (human); test: sandwich EIA on GP73-hFc, coated NC, second antibody 1B-4863-Bt
[8] = biological target: GP73-hFc (human GP73 amino acids 63 to 400 fused at the C-terminus to human IgG1 Fc) (human); test: sandwich EIA on GP73-hFc, coated 1B-4863, second antibody NC-Bt
[9] = biological target: GP73-hFc (human GP73 amino acids 63 to 400 fused at the C-terminus to human IgG1 Fc) (human); test: sandwich EIA on GP73-hFc, coated 1B-3246, second antibody NC-Bt
[10] = biological target: GP73-hFc (human GP73 amino acids 63 to 400 fused at the C-terminus to human IgG1 Fc) (human); test: sandwich EIA on GP73-hFc, coated 1B-3440, second antibody NC-Bt
[11] = biological target: GP73-hFc (human GP73 amino acids 63 to 400 fused at the C-terminus to human IgG1 Fc) (human); test: sandwich EIA on GP73-hFc, coated NC, second antibody 1B-4971-Bt
[12] = biological target: GP73-hFc (human GP73 amino acids 63 to 400 fused at the C-terminus to human IgG1 Fc) (human); test: sandwich EIA on GP73-hFc, coated 1A-4246, second antibody NC-Bt
[13] = biological target: GP73-hFc (human GP73 amino acids 63 to 400 fused at the C-terminus to human IgG1 Fc) (human); test: sandwich EIA on GP73-hFc, coated 1B-4971, second antibody NC-Bt

Sequence of GP73-hFc (human GP73 amino acids 63 to 400 fused at the C-terminus to human IgG1 Fc) (human) (chain, as listed by the source limits assumed): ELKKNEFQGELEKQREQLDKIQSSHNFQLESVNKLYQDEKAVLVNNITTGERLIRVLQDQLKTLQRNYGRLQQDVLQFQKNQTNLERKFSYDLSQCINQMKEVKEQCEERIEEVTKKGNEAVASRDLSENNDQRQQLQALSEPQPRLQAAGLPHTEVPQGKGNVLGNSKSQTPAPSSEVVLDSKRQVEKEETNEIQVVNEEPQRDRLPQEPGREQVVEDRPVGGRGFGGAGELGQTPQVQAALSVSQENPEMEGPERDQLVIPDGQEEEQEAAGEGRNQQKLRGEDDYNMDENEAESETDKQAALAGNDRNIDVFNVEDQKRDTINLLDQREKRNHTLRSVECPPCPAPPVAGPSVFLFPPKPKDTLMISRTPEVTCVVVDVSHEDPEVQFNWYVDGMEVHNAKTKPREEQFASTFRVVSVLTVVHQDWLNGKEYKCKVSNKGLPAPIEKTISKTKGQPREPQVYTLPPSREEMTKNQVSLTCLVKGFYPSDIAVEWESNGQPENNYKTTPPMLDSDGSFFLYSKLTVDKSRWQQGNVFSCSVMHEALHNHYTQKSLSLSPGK

sandwich assay signal (A492) [1]: 0.05 A492
sandwich assay signal (A492) [2]: 0.05 A492
sandwich assay signal (A492) [3]: 0.05 A492
sandwich assay signal (A492) [4]: 0.06 A492
sandwich assay signal (A492) [5]: 0.06 A492
sandwich assay signal (A492) [6]: 0.09 A492
sandwich assay signal (A492) [7]: 0.05 A492
sandwich assay signal (A492) [8]: 0.06 A492
sandwich assay signal (A492) [9]: 0.06 A492
sandwich assay signal (A492) [10]: 3.07 A492
sandwich assay signal (A492) [11]: 0.06 A492
sandwich assay signal (A492) [12]: 0.08 A492
sandwich assay signal (A492) [13]: 0.06 A492
Substance: negative control monoclonal antibody
